Results taken from patent US20250043302A1, “MUTATED HYDROXYPHENYLPYRUVATE DIOXYGENASE POLYPEPTIDE, AND CODING GENE AND USE THEREOF” (BEIJING DABEINONG BIOTECHNOLOGY CO., LTD., priority 2021, published 2025).

How the values were obtained:
Assay type in all cases: in vivo
[1] = test system: soybean T1 plants; assay: Isoxaflutole tolerance of transgenic soybean T1 plants; conditions: different concentrations
[2] = test system: Arabidopsis thaliana T1 plants; assay: Topramezone tolerance of transgenic Arabidopsis thaliana T1 plants (spray, bleached leaf area grade, damage score); conditions: 7 DAT, Table 4; for Classification and statistics of the grade of pesticide damage: Grade 0 / Classification and statistics of the grade of pesticide damage: Grade 1 / Classification and statistics of the grade of pesticide damage: Grade 2 / Classification and statistics of the grade of pesticide damage: Grade 3: number of plants; for Scores: pesticide damage score 0-100
Method in brief: (§1)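 Damage was assessed by bleaching grade (0 none; 1 <50%; 2 >50%; 3 100% of leaf area) one week after spraying. Sprays on 18-day-old T1 and wild-type plants used field-rate multiples: topramezone 25–200, isoxaflutole 35–280, mesotrione 52.5–420 g ai/ha.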

[3] = test system: Arabidopsis thaliana T1 plants; assay: Isoxaflutole tolerance of transgenic Arabidopsis thaliana T1 plants (spray, bleached leaf area grade, damage score); parameters: Scores (pesticide damage): scale not given here; conditions: spray, Arabidopsis thaliana T1 plants; for Classification and statistics of the grade of pesticide damage: Grade 0 (number of plants) / Classification and statistics of the grade of pesticide damage: Grade 1 (number of plants) / Classification and statistics of the grade of pesticide damage: Grade 2 (number of plants) / Classification and statistics of the grade of pesticide damage: Grade 3 (number of plants): 16 plants
Method in brief: as §1

[4] = test system: soybean T1 plants; assay: Topramezone tolerance of transgenic soybean T1 plants; conditions: different concentrations
Method: T1 transformants were initially selected from the untransformed seeds using a glufosinate selection scheme. […] The degree of damage caused by the herbicide was measured for each plant according to the proportion of bleached leaf area (the proportion of bleached leaf area=bleached leaf area/total leaf area×100%) 7 days after spraying (7 DAT): the case where there is basically no bleached phenotype is defined as grade 0, the case where the proportion of bleached leaf area is less than 50% is defined as grade 1, the case where the proportion of bleached leaf area is more than 50% is defined as grade 2, and the case where the proportion of bleached leaf area is 100% grade is defined as grade 3.
The soybean T1 plants into which the SbHPPD-02 nucleotide sequence was introduced, soybean T1 plants into which the SbHPPDm-F372A-02 nucleotide sequence was introduced, soybean T1 plants into which the SbHPPDm-F383W-02 nucleotide sequence was introduced, soybean T1 plants into which the SbHPPDm-F372A-F383W-02 nucleotide sequence was introduced, soybean T1 plants into which the control vector DBN11726N nucleotide sequence was introduced, and wild-type soybean plants (V3-V4 at seedling stage) were sprayed with topramezone at three different concentrations (i.e., 25 g ai/ha (one-fold field concentration, 1×). […] According to the method in point 6 of Example 1, after 7 days of spraying (7 DAT), the damage degree of each plant by the herbicide was statistically analyzed, and the scoring and resistance evaluation were carried out accordingly. […]

[5] = test system: Arabidopsis thaliana T1 plants; assay: Mesotrione tolerance of transgenic Arabidopsis thaliana T1 plants (spray, bleached leaf area grade, damage score); parameters: Scores: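 damage score 0-100 computed as Σ(N×S)/(T×M)×100 over grades 0-3 with higher meaning more damage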; conditions: Arabidopsis thaliana T1 plants; for Grade 0 (classification and statistics of the grade of pesticide damage; number of plants) / Grade 1 (classification and statistics of the grade of pesticide damage; number of plants) / Grade 2 (classification and statistics of the grade of pesticide damage; number of plants) / Grade 3 (classification and statistics of the grade of pesticide damage; number of plants): 16 plants
Method in brief: as §1

[6] = test system: soybean T1 plants; assay: Mesotrione tolerance of transgenic soybean T1 plants; conditions: different concentrations
[7] = isoxaflutole 35 g ai/ha (0.5x field concentration)
[8] = isoxaflutole 70 g ai/ha (1x field concentration)

B1: SbHPPDm-F372A-02: nucleotide sequence encoding Sorghum bicolor HPPD with F372A; vector DBN11759 (nucleic acid)
DNA: ATGCCGCCCACTCCAACAACTGCTGCTGCGACGGGAGCAGCTGTCGCCGCTGCTTCTGCTGAGCAGGCTGCCTTCAGGCTCGTCGGGCACAGAAATTTTGTTCGTGTAAATCCAAGGAGTGATAGGTTCCACACCTTGGCTTTTCACCACGTGGAGTTGTGGTGTGCTGATGCAGCCTCGGCAGCGGGGCGCTTCTCGTTTGGTCTCGGTGCTCCGCTCGCCGCAAGATCTGATCTTAGCACTGGAAACACAGCGCATGCCTCCCTGCTCCTGCGCTCTGGCGCGCTGGCGTTCCTCTTCACGGCGCCATATGCTCACGGCGCCGACGCCGCCACCGCGTCATTGCCGTCTTTTAGTGCAGCCGAAGCAAGAAGATTTGCAGCAGACCACGGCCTCGCCGTAAGGGCCGTGGCCTTACGTGTCGCCGATGCCGAAGATGCTTTCCGCGCCTCTGTAGCAGCTGGAGCAAGGCCAGCATTTGAACCTGTTGAATTGGGGTTAGGATTCCGTCTTGCAGAAGTTGAGCTTTATGGCGACGTTGTTTTGAGATACGTTTCATATCCTGATGACGCTGACGCTAGCTTCTTGCCTGGTTTTGTGGGGGTGACATCACCTGGGGCAGCAGATTATGGTCTCAGGCGGTTTGATCATATTGTTGGAAACGTTCCTGAACTCGCGCCGGCGGCAGCCTACTTCGCCGGTTTCACTGGGTTTCATGAATTTGCTGAATTCACAGCCGAGGATGTCGGCACCACCGAGAGTGGACTGAACTCCATGGTGCTGGCCAACAATGCAGAGAATGTCCTTCTTCCCTTGAATGAACCAGTTCATGGAACAAAAAGGCGTTCCCAAATACAAACATACCTCGACCATCATGGTGGACCAGGCGTTCAGCATATGGCTCTCGCTAGTGACGATGTTCTACGAACCCTGCGAGAGATGCAGGCGCGGTCTGCAATGGGAGGATTTGAGTTCATGGCACCTCCTGCCCCTGAATATTATGATGGTGTTCGGAGAAGGGCAGGTGATGTGCTAACTGAAGCTCAAATCAAGGAGTGCCAGGAGCTTGGCGTGCTGGTCGATCGGGATGATCAAGGTGTGCTTCTGCAGATTGCCACTAAACCAGTGGGTGACCGCCCCACGCTGTTCCTAGAGATCATCCAGAGAATAGGGTGCATGGAGAAGGACGAAAAAGGACAAGAGTACCAGAAGGGAGGTTGTGGCGGCTTTGGAAAAGGGAACTTCTCCCAATTATTCAAGTCAATTGAAGACTATGAAAAGAGTTTGGAGGCTAAGCAAGCTGCAGCCGCCCAGGGCAGCTGA
modifications: SbHPPDm-F372A-02 Nucleotide Sequence
notes: vector DBN11759
Which “tolerance to HPPD-inhibitor herbicides (in words): isoxaflutole” value [1] does the source give for B1 here?
Its value is “different degrees of tolerance”.

What about the “Classification and statistics of the grade of pesticide damage: Grade 0” value ([2]; topramezone 25 g ai/ha (1×)) of the same molecule?
Its value is 16.

And the “Classification and statistics of the grade of pesticide damage: Grade 1” value ([2]; topramezone 25 g ai/ha (1×))?
The value was 0.

What about the “Classification and statistics of the grade of pesticide damage: Grade 2” value ([2]; topramezone 25 g ai/ha (1×)) of the same molecule?
Its value is 0.

And the “Classification and statistics of the grade of pesticide damage: Grade 3” value ([2]; topramezone 25 g ai/ha (1×))?
Its value is 0.

And the “Classification and statistics of the grade of pesticide damage: Grade 0” value ([2]; topramezone 100 g ai/ha (4×))?
The value was 4.

And the “Classification and statistics of the grade of pesticide damage: Grade 1” value ([2]; topramezone 100 g ai/ha (4×))?
The value was 4.

And the “Classification and statistics of the grade of pesticide damage: Grade 2” value ([2]; topramezone 100 g ai/ha (4×))?
The value was 8.

And the “Classification and statistics of the grade of pesticide damage: Grade 3” value ([2]; topramezone 100 g ai/ha (4×))?
Its value is 0.

What about the Scores ([2]; topramezone 25 g ai/ha (1×)) of the same molecule?
Its Scores is 0.

What about the Scores ([2]; topramezone 100 g ai/ha (4×)) of the same molecule?
Its Scores is 42.

What about the Resistance evaluation ([2]; topramezone 25 g ai/ha (1×)) of the same molecule?
The Resistance evaluation was “highly”.

What about the Resistance evaluation ([2]; topramezone 100 g ai/ha (4×)) of the same molecule?
Its Resistance evaluation is “poorly”.

And the Resistance evaluation [3, 7]?
The Resistance evaluation was “Poorly”.

What about the “Scores (pesticide damage)” value [3, 7] of the same molecule?
Its value is 67.

What about the “Classification and statistics of the grade of pesticide damage: Grade 0 (number of plants)” value [3, 7] of the same molecule?
Its value is 0.

And the “Classification and statistics of the grade of pesticide damage: Grade 1 (number of plants)” value [3, 7]?
The value was 2.

And the “Classification and statistics of the grade of pesticide damage: Grade 2 (number of plants)” value [3, 7]?
The value was 12.

And the “Classification and statistics of the grade of pesticide damage: Grade 3 (number of plants)” value [3, 7]?
Its value is 2.

And the Resistance evaluation [3, 8]?
The Resistance evaluation was “Non-resistant”.

And the “Scores (pesticide damage)” value [3, 8]?
The value was 100.

And the “Classification and statistics of the grade of pesticide damage: Grade 0 (number of plants)” value [3, 8]?
Its value is 0.

And the “Classification and statistics of the grade of pesticide damage: Grade 1 (number of plants)” value [3, 8]?
The value was 0.

And the “Classification and statistics of the grade of pesticide damage: Grade 2 (number of plants)” value [3, 8]?
Its value is 0.

And the “Classification and statistics of the grade of pesticide damage: Grade 3 (number of plants)” value [3, 8]?
The value was 16.

What about the “tolerance to HPPD-inhibitor herbicides (in words): topramezone” value [4] of the same molecule?
Its value is “different degrees of tolerance”.

What about the Resistance evaluation ([5]; mesotrione 52.5 g ai/ha) of the same molecule?
Its Resistance evaluation is “Poorly resistant”.

What about the Scores ([5]; mesotrione 52.5 g ai/ha) of the same molecule?
The Scores was 60.

And the “Grade 0 (classification and statistics of the grade of pesticide damage; number of plants)” value ([5]; mesotrione 52.5 g ai/ha)?
The value was 0.

What about the “Grade 1 (classification and statistics of the grade of pesticide damage; number of plants)” value ([5]; mesotrione 52.5 g ai/ha) of the same molecule?
Its value is 6.

What about the “Grade 2 (classification and statistics of the grade of pesticide damage; number of plants)” value ([5]; mesotrione 52.5 g ai/ha) of the same molecule?
Its value is 7.

And the “Grade 3 (classification and statistics of the grade of pesticide damage; number of plants)” value ([5]; mesotrione 52.5 g ai/ha)?
The value was 3.

What about the Resistance evaluation ([5]; mesotrione 105 g ai/ha) of the same molecule?
The Resistance evaluation was “Non-resistant”.

And the Scores ([5]; mesotrione 105 g ai/ha)?
The Scores was 100.

And the “Grade 0 (classification and statistics of the grade of pesticide damage; number of plants)” value ([5]; mesotrione 105 g ai/ha)?
The value was 0.

What about the “Grade 1 (classification and statistics of the grade of pesticide damage; number of plants)” value ([5]; mesotrione 105 g ai/ha) of the same molecule?
Its value is 0.

What about the “Grade 2 (classification and statistics of the grade of pesticide damage; number of plants)” value ([5]; mesotrione 105 g ai/ha) of the same molecule?
The value was 0.

And the “Grade 3 (classification and statistics of the grade of pesticide damage; number of plants)” value ([5]; mesotrione 105 g ai/ha)?
Its value is 16.

What about the “tolerance to HPPD-inhibitor herbicides (in words): mesotrione” value [6] of the same molecule?
Its value is “different degrees of tolerance”.
